Test results: PMC10797482, “The Interaction between Collagen 1 and High Mannose Type CD133 Up‐Regulates Glutamine Transporter SLC1A5 to Promote the Tumorigenesis of Glioblastoma Stem Cells” (Advanced Science, 2023)

Biological target: T1, His-COL1A1(972-1206) (human, UniProt P02452 972-1206)
T1 construct: also called COL1 (in the in vitro pull-downs); source: HEK293F, transfected (PEI), purified from the supernatants (Nickel Beads)
Assay: pull-down; GST pull-down: 10 µg purified GST fusion protein with GST-beads incubated with His-COL1A1(972-1206) protein 1 h at 4 °C; washed three times with RIPA (1% Triton X-100, 50 mM Tris pH 7.4, 150 mM NaCl, 2 mM EDTA); blot with anti-His antibody
Settings: both partners purified

T1 sequence (P02452 972-1206): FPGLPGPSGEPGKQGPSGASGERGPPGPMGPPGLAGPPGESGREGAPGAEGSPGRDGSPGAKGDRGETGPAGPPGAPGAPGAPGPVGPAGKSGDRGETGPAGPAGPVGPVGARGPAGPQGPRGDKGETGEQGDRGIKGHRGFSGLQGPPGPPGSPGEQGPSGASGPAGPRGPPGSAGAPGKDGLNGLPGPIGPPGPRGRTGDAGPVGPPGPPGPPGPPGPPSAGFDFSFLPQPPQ

Row | binding result | Binder
1 | binds | GST-CD133(20-108) (domain or fragment, human, UniProt O43490 20-108, looked up, source: E. coli BL21(DE3), purified (Glutathione-Superflow Resin)) GGQPSSTDAPKAWNYELPATNYETQDSHKAGPIGILFELVHIFLYVVQPRDFPEDTLRKFLQKAYESKIDYDKPETVILGLKIVYYEAG
2 | binds | TQDSHKAGPIGILFELVHIFLYVVQPRDFPEDTLRKFLQ (domain or fragment, human, UniProt O43490 43-81, looked up, source: E. coli BL21, purified (Glutathione-Superflow Resin)) [GST-CD133 N-terminal segment (amino acids 43–81)]
